Columns and labels:
[1] = target: Human γD-crystallin I4F/V76D, bimane-labeled at cysteine 111 (human) (UniProt P07320); assay: fluorescence polarisation
[2] = target: T1, triply phosphorylated analog (S19D/S45D/S59D) of αB-crystallin (UniProt P02511 1-175, S19D | S45D | S59D); assay: fluorescence polarisation
T1 sequence (looked up): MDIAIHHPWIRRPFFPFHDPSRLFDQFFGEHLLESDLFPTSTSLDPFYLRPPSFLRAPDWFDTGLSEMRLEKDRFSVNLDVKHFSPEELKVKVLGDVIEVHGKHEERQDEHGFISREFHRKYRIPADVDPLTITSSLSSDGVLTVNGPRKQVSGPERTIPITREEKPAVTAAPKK

| Molecule | Kd [1] | Kd [2] |
| --- | --- | --- |
| αB-crystallin (from UniProt P02511 1-175) (natural protein) | > 300 µM | – |
| Human γD-crystallin I4F/V76D, bimane-labeled at cysteine 111 (natural protein, bimane label at cysteine C111) GKFTLYEDRGFQGRHYECSSDHPNLQPYLSRCNSARVDSGCWMLYEQPNYSGLQYFLRRGDYADHQQWMGLSDSDRSCRLIPHSGSHRIRLYEREDYRGQMIEFTEDCSCLQDRFRFNEIHSLNVLEGSWVLYELSNYRGRQYLLMPGDYRRYQDWGATNARVGSLRRVIDFS | – | 27 ± 6 µM |
